Results published in paper PMC11285941.

B1: LgBiT-TBK1 (enzyme)
chain: MQSTSNHLWLLSDILGQGATANVFRGRHKKTGDLFAIKVFNNISFLRPVDVQMREFEVLKKLNHKNIVKLFAIEEETTTRHKVLIMEFCPCGSLYTVLEEPSNAYGLPESEFLIVLRDVVGGMNHLRENGIVHRDIKPGNIMRVIGEDGQSVYKLTDFGAARELEDDEQFVSLYGTEEYLHPDMYERAVLRKDHQKKYGATVDLWSIGVTFYHAATGSLPFRPFEGPRRNKEVMYKIITGKPSGAISGVQKAENGPIDWSGDMPVSCSLSRGLQVLLTPVLANILEADQEKCWGFDQFFAETSDILHRMVIHVFSLQQMTAHKIYIHSYNTATIFHELVYKQTKIISSNQELIYEGRRLVLEPGRLAQHFPKTTEENPIFVVSREPLNTIGLIYEKISLPKVHPRYDLDGDASMAKAITGVVCYACRIASTLLLYQELMRKGIRWLIELIKDDYNETVHKKTEVVITLDFCIRNIEKTVKVYEKLMKINLEAAELGEISDIHTKLLRLSSSQGTIETSLQDIDSRLSPGGSLADAWAHQEGTHPKDRNVEKLQVLLNCMTEIYYQFKKDKAERRLAYNEEQIHKFDKQKLYYHATKAMTHFTDECVKKYEAFLNKSEEWIRKMLHLRKQLLSLTNQCFDIEEEVSKYQEYTNELQETLPQKMFTASSGIKHTMTPIYPSSNTLVEMTLGMKKLKEEMEGVVKELAENNHILERFGSLTMDGGLRNVDCL

Biological target: ALTO with a NanoBiT tag at its N-terminus (Merkel cell polyomavirus)
Test: split reporter (BiFC, NanoBiT); NanoBiT in live HEK293 cells, 50 ng LgBiT + 50 ng SmBiT plasmid, 20-24 hours after transfection, NanoGlo reagent, luminescence; an interaction counts when the reading is tenfold above the LgBiT construct with the SmBiT negative control

| Molecule | luminescence against the LgBiT-tagged construct with the SmBiT negative control |
| --- | --- |
| STING-LgBiT (from UniProt Q86WV6 1-379) (natural protein) | > 10 fold |
| B1 | > 10 fold |
